The labels stand for the following.
B1: B31-H3L3-MMAE (antibody, human IgG1, kappa, V domains shown)
VH: EVQLVESGGGLVQPGGSLRLSCAASGFTFSRYAMSWVRQAPGKGLEWVASISRGGSTYYADSVKGRFTISRDNSKNTLYLQMNSLRAEDTAVYYCASYFGNYDAMDYWGQGTTVTVSS
VL: DIQMTQSPSSLSASVGDRVTITCRASQDINNYVSWFQQKPGKAPKSLIYRANRLVSGVPSRFSGSGSGTDFTFTISSLQPEDFATYYCLQFDEFPYTFGGGTKLEIKR
modifications: MC-VC-PAB-MMAE on cysteine sulfhydryl groups of reduced interchain disulfides; average DAR 3.5 over the whole antibody
notes: conjugated positions not resolved; also called B31-H3L3-MC-VC-PAB-MMAE; B31-MMAE
B2: B31-H3L3 (antibody, human IgG1, kappa, V domains shown)
VH: B1 VH
VL: B1 VL
B3: B62-H3L3 (antibody, human IgG1, kappa)
heavy: not shown
light: DIQMTQSPSSLSASVGDRVTITCVTSIDIDDDVNWYQQKPGKAPKLLISAGNTLRPGVPSRFSGSGSGTDFTFTISSLQPEDIATYYCLQSDNLPYTFGGGTKLEIKRTVAAPSVFIFPPSDEQLKSGTASVVCLLNNFYPREAKVQWKVDNALQSGNSQESVTEQDSKDSTYSLSSTLTLSKADYEKHKVYACEVTHQGLSSPVTKSFNRGEC
B4: B62-H3L3-MMAE (antibody, human IgG1, kappa)
heavy: not shown
light: B3 light
modifications: MC-VC-PAB-MMAE on cysteine sulfhydryl groups of reduced interchain disulfides; average DAR 3.5 over the whole antibody
notes: conjugated positions not resolved; also called B62-H3L3-MC-VC-PAB-MMAE
B5: B31-H1L1 (antibody, human IgG1, kappa, V domains shown)
VH: B1 VH with A40T, G44R, A60P, S74A, N83S, V92M
VL: B1 VL with R24K, S46T, S56D, T69Q, F71Y
notes: also called B31-HIL1
B6: B31-H2L2 (antibody, human IgG1, kappa, V domains shown)
VH: B1 VH with S74A, N83S
VL: B1 VL with R24K, S56D, F71Y
B7: B31-H2L3 (antibody, human IgG1, kappa, V domains shown)
VH: B1 VH with S74A, N83S
VL: B1 VL
B8: B31-H3L2 (antibody, human IgG1, kappa, V domains shown)
VH: B1 VH
VL: B1 VL with R24K, S56D, F71Y
B9: B31-H3L4 (antibody, human IgG1, kappa, V domains shown)
VH: B1 VH
VL: B1 VL with V33L, V55Q, F73L
B10: B31-H4L2 (antibody, human IgG1, kappa, V domains shown)
VH: B1 VH with A49S, S50A
VL: B1 VL with R24K, S56D, F71Y
B11: B31-H4L4 (antibody, human IgG1, kappa, V domains shown)
VH: B1 VH with A49S, S50A
VL: B1 VL with V33L, V55Q, F73L
B12: B31-H4L3 (antibody, human IgG1, kappa, V domains shown)
VH: B1 VH with A49S, S50A
VL: B1 VL

Numbering of substitutions follows the chain as printed.

For one assay, the target named is T1, human ROR1 on cells (full-length human ROR1 on huROR1-HEK293 cells; human ROR1 on A549 and HT-29 tumor cells) (human, UniProt Q01973 30-937).
T1 construct: whole, on cells; also called hROR1-HEK293T; A549 tumor cells
T1 sequence (Q01973 30-937): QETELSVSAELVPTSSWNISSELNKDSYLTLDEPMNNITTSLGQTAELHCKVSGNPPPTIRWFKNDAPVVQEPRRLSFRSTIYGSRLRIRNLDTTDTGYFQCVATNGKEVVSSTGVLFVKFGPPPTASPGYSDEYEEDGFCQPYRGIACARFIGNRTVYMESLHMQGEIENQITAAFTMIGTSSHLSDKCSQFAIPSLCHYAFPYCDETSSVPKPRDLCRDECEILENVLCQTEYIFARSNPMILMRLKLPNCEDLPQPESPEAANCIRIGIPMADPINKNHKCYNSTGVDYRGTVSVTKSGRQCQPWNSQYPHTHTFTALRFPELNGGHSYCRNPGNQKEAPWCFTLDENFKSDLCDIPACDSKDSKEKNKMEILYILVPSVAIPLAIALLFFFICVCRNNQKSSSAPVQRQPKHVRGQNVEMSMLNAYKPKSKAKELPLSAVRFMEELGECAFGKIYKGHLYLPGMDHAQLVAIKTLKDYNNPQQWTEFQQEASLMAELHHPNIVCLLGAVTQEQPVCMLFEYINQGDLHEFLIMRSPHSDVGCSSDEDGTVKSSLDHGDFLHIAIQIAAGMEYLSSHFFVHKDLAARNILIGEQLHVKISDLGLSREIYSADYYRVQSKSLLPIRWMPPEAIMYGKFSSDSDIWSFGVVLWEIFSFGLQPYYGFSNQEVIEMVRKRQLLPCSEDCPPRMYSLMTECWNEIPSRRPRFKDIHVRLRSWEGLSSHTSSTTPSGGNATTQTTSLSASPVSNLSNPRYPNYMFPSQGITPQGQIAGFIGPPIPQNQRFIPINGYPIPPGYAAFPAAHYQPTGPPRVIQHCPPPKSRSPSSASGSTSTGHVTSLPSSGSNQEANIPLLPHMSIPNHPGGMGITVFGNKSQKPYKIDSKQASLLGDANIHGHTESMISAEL
Kind of assay: flow cytometry (FACS) on A549 tumor cells, anti-human IgG-Fc secondary antibody, MFI. The method, then:
(§1) The specific method was as follows: A549 cells or HT-29 cells in the logarithmic growth phase were prepared to a single-cell suspension, the density was adjusted to 1×10⁶ cells/mL, 100 µL/well was added to a 96-well round-bottom plate, then centrifuged at 4° C., 300 g, and the supernatant was removed. […] After the incubation, the cell mixture was washed three times and then 100 μL of 1:300 diluted secondary antibody Goat F(ab′)₂ Anti-Human IgG-Fc (abcam, ab98596) was added. The mixture was incubated at 4° C. in the dark for 30 min. After washing three times, the cells were detected by flow cytometry (Beckman, CytoFLEX AOO-1-1102).
Background: A flow cytometer gives signals particle by particle.
The term EC50 (read off the curve) denotes the concentration giving half of the maximal effect. Low values mean higher potency in that assay, high ones lower potency in that assay. Regarding B1, the “EC50 (read off the curve)” value is about 20 ng/mL.
For B2, the 50% effective concentration (EC50 (read off the curve)) is about 20 ng/mL.
As to B3, the “EC50 (read off the curve)” value was about 10 ng/mL.
Consider B4, for which the “EC50 (read off the curve)” value is about 20 ng/mL.

In the next assay the target is T2, huROR1-His (human ROR1 ECD AA30-406 with C-terminal His tag, made in house) (human, UniProt Q01973 30-406).
T2 construct: range 30-406; Expressed in HEK293; also called antigen protein huROR1-His; not shown: C-terminal His tag
T2 sequence (Q01973 30-406 limits assumed): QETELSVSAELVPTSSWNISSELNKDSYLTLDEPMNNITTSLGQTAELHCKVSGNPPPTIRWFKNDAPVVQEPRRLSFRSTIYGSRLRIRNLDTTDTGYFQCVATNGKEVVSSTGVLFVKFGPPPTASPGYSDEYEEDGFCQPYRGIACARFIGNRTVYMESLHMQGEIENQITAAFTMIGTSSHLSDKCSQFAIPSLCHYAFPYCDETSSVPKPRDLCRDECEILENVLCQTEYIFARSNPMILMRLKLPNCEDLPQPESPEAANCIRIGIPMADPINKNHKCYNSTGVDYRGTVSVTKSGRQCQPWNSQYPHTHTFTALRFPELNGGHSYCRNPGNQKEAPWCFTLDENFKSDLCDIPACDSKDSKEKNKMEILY
Kind of assay: ELISA, huROR1-His coated plate, goat anti-human Fc-HRP, OD450.
As usually defined, the EC50 is the concentration that produces a half-maximal response. B3 showed an EC50 of 7.21 ng/mL.

A further assay addresses T2, huROR1-His (human ROR1 ECD AA30-406 …). Described as above. This is another data set of the same source.
With B5, it took 3.24 ng/mL to reach a half-maximal effect (EC50).
The molecule B6 had a concentration for a half-maximal effect (EC50) of 4.57 ng/mL. This EC50 and that of the molecule before are within 1.5-fold of each other.
On the same count and under the same terms, the figure for B7 is 4.29 ng/mL.

Another assay has the same target. Described as above. This is another data set of the same source.
Take B2: the response was half-maximal at 4.6 ng/mL (EC50).
The same measure, in the same setting: as for B8, the figure is 3.23 ng/mL; as for B9, 5.23 ng/mL.

The target in the next assay is T1, human ROR1 on cells (full-length human …). The experiment in a line: flow cytometry (FACS) on HT29 (HT-29) tumor cells, anti-human IgG-Fc secondary antibody, MFI. The method, then: as §1
With B1, the concentration giving a half-maximal response (EC50 (read off the curve)) was about 20 ng/mL.
Still for that read-out and setting: as for B2, the figure is about 20 ng/mL; as for B3, about 20 ng/mL; as for B4, about 20 ng/mL.

In another assay the target is T2, huROR1-His (human ROR1 ECD AA30-406 …). Kind of assay: ELISA, huROR1-His coated plate, goat anti-human Fc-HRP, OD450. The source holds these as a separate data set.
Molecule B10 yielded an EC50 of 8.12 ng/mL.
B11 displayed an EC50 of 17.1 ng/mL.
Regarding B12, the 50% effective concentration (EC50) amounted to 5.74 ng/mL.
